Test results published in the DeepSol protein solubility set.

Assay: soluble on expression in E. coli; label from the status in PepcDB or PDB records

Soluble on expression in E. coli, soluble:
MLILMDPEETGKAPEIRALKSRAVNRVDSDLGRMEAVKRLKGVEDRRVGSEVFDELTLKTLYKLANSGYLAVLNGAVSTGKEANVFKGITDTDDFVAVKIYRVATSDFKKMQYYIQGDPRFKVRTTNRRQLVQAWVNKEFRNLKRALEAGVRVPEPVTARDNVLIMEFIGKDGVPAPTMRDAPPEDPEEALETIIEYMHRLYKGARLVHGDLSFFNILNHCGEPVIIDVSQAMVLDHPLAGELLERDIENIIRDFRRIGVSVSADYIRERITGK
MAHHHHHHMRKAVRALQRRASQQAREVAVAANDMDGETATTQRPSFSLFWVQLTQAKVDVVLPPAQPPTPSAEVEAEEESETAERAAHAGHGGSRDTASAHTAAQFRRVHDTNRRVLRIIEACPDETLIVVLAGRCDGEAGGNHFSRAQGTCFAFVKDSSAPGPRPEELTKLTDENNVSALPRASAGGAAVDNIPLQDASALSTAAVPHSVDRETAMVEHTPLACQQQ
SLIKEQASKLIKEIVNQISSLASISNFVLLFPRLDFKGLGYIPQLFFIFVKHDLIEENLSSVSSARAVIDFTNTKSEYVNFNITPRPEIVTINKGILSSIYDQTLIRALRETPFMNSALEFNSNFIKMQFRQRFNLGVYYSMYSPSVGFHEVVSISSLKLKDTVYLEEVEISLQVKICKTFNILTYKG
MAHHHHHHMSELQSLTPETAFTVASTFLAYYYSEFVKLNELARMSDLYDERSYMTLVDFRDEVPVVAHGRNAVANLLAKLDSTLGQRKVEIITVDTVALPHNCVQVICQGVMYLREYRRVFLHVFMLEPTAYRTKTYHIASDYLRFVDSEKEVIPEGAVVIAADQVAAYLEESRRRVEEEQRRQLLEFQQRIRLQQQQLQMQQQQQQQKAAAMNMPAPASRQSRPAASASRDGGRPARGERKPREPRENRGERKPREPREPRGEHKPREGEEKVAAASPSRLAGEGKKGGERGNRKPAAAANAAKGTADTAAATPAPAAVRKPRRESGPTAAIIMLRVPKKIKLSDIKAELVSQGFSELKDLFWCGRDSAHAVVKFSTVEKATEAFETKPFKIQGESLNLDYYHE
MSLTVKDILDAIQSPDSTPADIAALPLPESYRAITVHKDETEMFAGLETRDKDPRKSIHLDDVPVPELGPGEALVAVMASSVNYNSVWTSIFEPLSTFGFLERYGRVSDLAKRHDLPYHVIGSDLAGVVLRTGPGVNAWQAGDEVVAHCLSVELESSDGHNDTMLDPEQRIWGFETNFGGLAEIALVKSNQLMPKPDHLSWEEAAAPGLVNSTAYRQLVSRNGAGMKQGDNVLIWGASGGLGSYATQFALAGGANPICVVSSPQKAEICRAMGAEAIIDRNAEGYRFWKDENTQDPKEWKRFGKRIRELTGGEDIDIVFEHPGRETFGASVFVTRKGGTITTCASTSGYMHEYDNRYLWMSLKRIIGSHFANYREAWEANRLIAKGRIHPTLSKVYSLEDTGQAAYDVHRNLHQGKVGVLCLAPEEGLGVRDREKRAQHLDAINRFRNEGHHHHHH
GMASIKGEVDEIANYGNLKITKEEERVNITGDLEKFSSLEEGTIVTRFNMNDTSIQSLIGLSDGNKANNYFSLYVSGGKVGYELRRQEGNGDFNVHHSADVTFNRGINTLALKIEKGIGAKIFLNGSLVKTVSDPNIKFLNAINLNSGFIGKTDRANGYNEYLFRGNIDFMNIYDKPVSDNYLLRKTGETK

Soluble on expression in E. coli, not soluble:
MGSDKIHHHHHHMANTPLLITLLPSSGVDLSRWLMAHYGVTYEERPHAPIFHVLALKSWGEGKDGYPLFVHADRTTKTVGCRKIAEFFDPSAPADKTLLPDPDAEPELAAQVDDIVKYSYWTIGGDVVNWSYWNFLKYKWVVWPSLTTKVPWYEKLTCLVAFRLIRFLMYKGLKLDQRVADASLKEILAGFDKFDAMLADGRPYLTGDRMTYADLATAAALGPMILAQGYHGMLPNQAKCPVFMQGIYQQLRQRPTGLFIQRMYDQHRPAQLLQI
MGSDKIHHHHHHMDLRDLTYFETIAELGHLGRAAEKLNRSQPALTKSIQRLEESFGTRLFQRDGRRIKLTPVGELLQARGKELQQSIAQTQREVRDFASGMVGNIRVGCAATMAEYLMPKLTSALLQRTPDVTFKLVIGQDDLLRESLRSGQLDMIICALAPDSDDVTSFAVLKDEAVVIASKHHPIFKTPLQMSDLCAYRWVLPPVSVSSRKWLDTTFAAHGLPLPTVQIEANSISLLPGLIAQSNLLSFVARESLEFGKTMQHLREVPLEQTTLKRTIGVTLRKGGYLSPAAEGMLQMLRDNGGDFLGWG
MGSDKIHHHHHHSSDDKDEQPILVTNVVMPASGTVFKPGEKVTIMAKGFQDNDEIMFDIRWPLQDEVLHEGYAKGGRGVITEKTATSITFLAPGHWPASTTEILLRRSGQMMSLGKISVADGQAPKDFQLYGIINSRSNTHRPHAIEYINLEKPQTAEIVRLADNQDFSCVVNLPGSWSLSGVWTKDDRRTTGLYDLSMNYWEKPGADQLVTMGIATANSVFGVYQGGDRLFVKTVNVMPYTRMYVPEKPDYGFLLPEGMKAEALSRYPCIQMSDGNILCSADNGDGTFSPVVLNGQNIEEKSIYVGEPIEAVALIPFWIVKPVEGMGTAKYTRVGGYIVSKRNGATITEGDGTEFRLWNPTTKMLDEPFTTFPNAACLVATLVSDDFKKQELYVLFDGSRNGRLIYVYDLLKGSWESLYPGGGFPYSEIVLAR
MARRGNKAIRATVSMKIALSEPLLVLVNNYVKALRFTLFWLKENVPNPEEKGVLSKVHEALYEKLREEYNLPSKVAEDCYREALATYKGWYNNPRRGRFPRVYRPTVWLTPRASYNVDFEAMTVRIVSVGELSILGYPRNLKEYMGWKMKEARLVIRDDKAFLKVVFEKEEQKVEPKESIAVDINMAEVVVGKDDKNYVRIPTRLEEVHHWKSLAERLLKKYPRRWRENKRILYRVRSFHLKARRIMEDFARKVGKWVVDVAKRMGVNVIKLESLKNLIKSVEKLSKEFRDKLYLMQYRRLQYWISWQAKKRGMTVEFVNPSYSSVSCPKCGKRMVEVSHRWFKCSCGYENDRDVIAIMNLNGRGSLTLSTAPQMRDVNPNRLEHHHHHH
MGSDKIHHHHHHMNSTITPTLNLKAQHAERRVVVTGASGYVGARLVVELLSTGFNVRATSRSLSSLKRFPWYDQVEAVEADLSISEDVNRLFEDVDTVFYLVHSMSGTQNFEELESKIASKVAQAAHSNGVRQIIYLSGLHPRTELDKLSPHMRSRENVARILGSTAVPAITFRAATLIGSGSASFEMIRHLTERLPIMVAPQWINNKIEPISIRDTLYYLVKAADLPEPINEEFDIGSGHIYTFADLLRIYGKIRGLRRTIVSLPIPLPLDTLSGLWIAAITPAPLSLAQPLAQSMQEDAICSNRSIRDYISDPPSGLADYPTSVRRALQQESMGVLSSWDSSWKNLSSTDHLPSDPEWTGRTVYSDVQEQSFRSEPAKVWRVIEGIGGHHGWYSTPLLWFVRGVIDKAIGGPGLGGRRDPNRLRVGDRVDFWRVEEVTPEKQLTLRAEMRASGQAWLQFTINGNTLRQRAVYFPKGLLGRVYWLALIPFHAVIFPTMLRNIIQAGDN
MAHFGKLALSVTAAAVLALSAQARDQIKMAGSSTVYPFSSYVAEEFGATTGNKTPVVESLGTGGGFKVFCAGDGLDTTDIANASRPIKKSEFDNCVANGVTDITGVMIGYDGISIAQSKANAAINFKIEHLFLALAEEVPVDGKLVKNPYKTWNQVDASLPNRPIVVYGPPTTS
MGSDKIHHHHHHMLIISDAHANIHPLKYVIQREKFDKIVFCGDAVDYGPNPGETLDLLKENADVMVSGNHDYAAAYSVDCRCGEENHELSVFTRENITLKKLGKNDISFLRSLPNRMDMEIDGMKFQVMHGSPRDELYGYMYPWSVQDHLRSMLGSPLDPANYVVGHTHYQFLIRYAGNLVINPGSIGQPRDNPMPSYAVYDSSRNSVEFPRFDYDRSKLKEDIRSIISDQEILSGLYRLFSL
ILRTKAQFVAMNEASLMQINHEWLQGTQSKQVTSQGETWQIDKRAESTISPNVQRIEIQVSLFDTQQNKVEAGITNLVFFNYPQKENAS
MGNWLLPEGLADVLPAEARRIEELRRELLDLYRTYGFELVAPPLVEYIDSLLSSTGSDLNLRTCKLVDQLSGRTLGVRADMTSQVTRIDAHLLNRAGVTRLCYCGSVLHARPADLLSSRELLQIGAEIYGHAGFEADLEIIQLVMDTLATAGVRNARLDLCHSGVMRAIFDADPQASRHAGDLCTLLREKDVPGLAELASRVDGLGEDTVRALQALATLYGGPEIIARARRELPAVPGMAQALDALQALVDAMPGVTLSVDLADVGGYGYHSGVTFAVYGEDWHDALVRGGRYDDVSRAFGRARPATGFSLDLRKLAAGLTPAEPARAVRAPWGQDPALTDAVRRLRRSGEIVVQVLPGHEQGLDEFVCDRELALQDGAWTVRTL
MMKTVLIYYPFSLAAERNSGSKLRPYEMHQAFLRWGAKEGVDVLLIAGTSAEREKQFQELRSQGKLDDVWFCYMENQTIPLWLTDPGHRSQRPFVDRDVLRYLKARNVPIGVFYRDVYWKFPDLYPLRGWKKAAMQMMYRWEERFYERYCDVIFLPSLEMGTYVAIRRPMVDLPPGGKQKPFQRFGTAKQPLNAIYVGGINNADYGLLLLLEAIRLANRRKPLVSLTVVCRKDEYERQPLAVKEELAALQVRVEHVSGEALDRLYAEMDFAFIPRRRSEYNDFSVPVKLVDYLSSGLPIVATACSAQKRLIEADGYGVICDDNPSSMAEAIAKMADMLEECRLRIAQTFMAKHSWEARVEKVKETLVGGLR
MLNKRHLPSIAALQCFEAVTRHLSFTRAAEELNLTQSAVSKQVAQLEELVQHLLFQRVRRRLQLTPAGALYLAEVRKILTQIEMSTHFLRSYGGETEVLRVSTPSTFGARWLVPRLKGWRLRHPHIHLDLINEQESDDLLKGRCDVSFYFGQAAIPGAESVKLFGEELVPVCSPDSLPAEPFTDPTQLSELVLLQNAFRPQAWHEWFESQGYHTDHSYHGPRFETFYMCIRAAQVGCGVALLPRFLVEEELAEGKLVIAWDYALPSTNSAYYLSYPEHTADVPKIRVFLQWMLEQLDQPAR
MGSDKIHHHHHHMAGRRAIAQNLLISNNDRQERTTRMNDKRNCFLPHDKLQHLIDSLQNAGYSCVGPQVRDGAIVYDVLTRAEQLPWGMRDHQEPGGYRLEQIPERKAFAFANGPQGIKPLLFKPQETVWRVERDEQGKLCFKPHQPDETPVAIIGSRACDLAAMSIQDKVFIENNKPDPRYKRRREQLFVVAVNCTYSSANCFCVSAGTGPAVNNSFDILMTEIEDGFVVEAGSDKGKKIMNQLDLHDAKSAQCTDAQNNVKQAAALQTKRIPLDNKRDLRDLLFSNLNHTRWDDVAERCLSCGNCTLVCPTCFCHSEVEKPGLDGCTSEHHREWDSCFTTGHTYLNGKIIRDDTKKQYRQWLTHKVGSWFDQFDTSGCVGCGRCVTWCPVGIDITEELAAISGESNARKIENE
MGSDKIHHHHHHMTRYRFFHTADIHLGKTYRTSTGEAERYEDFFRMLGSIVSDAIAARVDFVLIAGDLFHTGQILPRTFARTIETLQPLKNAGIPCIAVEGNHDWIHRRDSISWMEALSQMGYIHLLRPSRTETGGYRFSPFDYEQGMGGHIEVNGVNIYGLGYIGTQAGAHVARICEAITTTNNILLFHVGVWTYSPVEIGNMKPEEALPLADVFDYVALGHGHKPYIIATPEGRAYAFNPGSPECVNFGEEKYDKGYYLVTVNDGVYTHEFRPTNPRPMLVTTIDLDGAGDAETALTRFRNVVAAKIASFSDDRQPLLEIKLTGRVGFHPFELGRERLRLALEEICNPLHVEIKNHLSLVTAGGGAESEKKSLAEIEREVLRELISAKSEYKGREDELVRLSLAIRDQVLKGETDGEELLGLLMREPA
SDLCQLFVEQLFGFQDPASLHVLINEIPCARKNLISLRRFSLLIAEPQWFTGSIYDNLVLNHRNVPNKIIIEQLKNVGLADKIIQLPEGLRTILYEWQDVFTLVELTKLMLVRALLLQPELIVIDRAFDILNHQEVNEMMELVLSLKNTLLAIVSQRSDFNYLNNRLVISS
